Results published in article PMC3279538 (Diabetes, 2010).

Molecular target: endogenous B7-H1 wild type (NOD mouse, from wild-type spleen) (mouse (endogenous in NOD spleen), UniProt Q9EP73 19-290)
Assay: SPR

endogenous B7-H1 wild type (NOD mouse, from wild-type spleen), sequence (Q9EP73 19-290): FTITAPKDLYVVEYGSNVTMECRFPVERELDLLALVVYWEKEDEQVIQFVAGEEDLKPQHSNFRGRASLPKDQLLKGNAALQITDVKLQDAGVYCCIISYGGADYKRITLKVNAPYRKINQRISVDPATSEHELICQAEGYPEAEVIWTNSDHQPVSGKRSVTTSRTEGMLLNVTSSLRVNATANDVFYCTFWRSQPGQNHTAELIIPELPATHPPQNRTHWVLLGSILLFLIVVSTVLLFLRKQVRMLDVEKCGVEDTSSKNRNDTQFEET

Kd: 11 nM
koff: 0.0017 s⁻¹
B1: PD-1 receptor (receptor, UniProt Q02242 25-169, looked up)
chain: LEVPNGPWRSLTFYPAWLTVSEGANATFTCSLSNWSEDLMLNWNRLSPSNQTEKQAAFCNGLSQPVQDARFQIIQLPNRHDFHMNILDTRRNDSGIYLCGAISLHPKAKIEESPGAELVVTERILETSTRYPSPSPKPEGRFQGM
